Results taken from patent US20200347144A1 (SHANGHAI HYAMAB BIOTECH, published 2020).

Assays:
[1] = target: T1, hFc-tagged human 4-1BB extracellular domain protein (4-1BB-hFc) (human, UniProt Q07011 24-186, limits assumed); assay: ELISA, coated human 4-1BB-hFc; Ab 2 ug/ml
T1 construct: also called immunogen A; 4-1BB^ECD-hFc; not shown: human IgG Fc fragment (hFc) of the pCpC vector
Experimental: (§1) The purified immunogen A (4-1BB-hFc), monkey 4-1BB-his, and mouse 4-1BB-his obtained in Example 1 [for the preparation method, see step 1 of Example 1, preparation of immunogen A], of which the extracellular domain of monkey-derived 4-1BB protein (purchased from ACRO biosystems), the extracellular domain of mouse 4-1BB protein (purchased from sino biological) or other immune detection point proteins respectively were diluted with PBS to a final concentration of 1.0 μg/mL, then added with […] per well to 96-well ELISA plate. It was sealed with plastic film and incubated at 4° C. overnight. The next day, the plate was washed twice with the plate-washing solution [PBS containing 0.01% (v/v) Tween20] and blocking solution [PBS containing 0.01% (v/v) Tween 20 and 1% (v/v) BSA] was added and blocked at room temperature for 2 hours. The blocking solution was discarded and 100 μl of the purified 4-1BB antibody obtained in Example 2 was added per well. After incubated at 37° C. for 2 hours, the plate was washed 3 times with a plate-washing solution [PBS containing 0.01% (v/v) Tween20]. A secondary antibody (purchased from Sigma) labeled with HRP (horseradish peroxidase) was added, and after incubated at 37° C. for 2 hours, the plate was washed 3 times with a plate-washing solution [PBS containing 0.01% (v/v) Tween20]. 100 μl of TMB substrate was added per well. After incubated for 30 minutes at room temperature, 100 μl of stop buffer (1.0N HCl) was added per well. The A450 nm values were read using an ELISA plate reader (SpectraMax 384plus, Molecular Device).

[2] = target: T2, human 4-1BB, full length, on transfected cells (human, UniProt Q07011 24-255); assay: FACS, CHOK1-h4-1BB cells; Ab 0.4 ug/ml
T2 construct: whole, on cells; also called CHOK1-h4-1BB
Method in brief: (§2)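 CHOK1 stable lines expressing human or monkey 4-1BB were detached with enzyme-free Versene, blocked in 1% goat serum on ice for 30 min and resuspended at 2×10⁶ cells/mL in HBSS with 1% BSA. Purified antibody was bound on ice for 2 h, then cells were fixed in 4% paraformaldehyde and analysed by flow cytometry.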

[3] = target: T2, human 4-1BB, full length, on …; assay: FACS, CHOK1-h4-1BB cells; Ab 0.08 ug/ml
Method in brief: as §2

[4] = target: T2, human 4-1BB, full length, on …; assay: FACS, CHOK1-h4-1BB cells; Ab 0.00013 ug/ml
Method in brief: as §2

[5] = target: T3, monkey 4-1BB on CHOK1 cells (monkey); assay: FACS, CHOK1-c4-1BB cells; Ab 10 ug/ml
T3 construct: whole, on cells; also called CHOK1-c4-1BB
Method in brief: as §2

[6] = target: T1, hFc-tagged human 4-1BB extracellular …; assay: ELISA, coated human 4-1BB-hFc; Ab 0.4 ug/ml
Experimental: as §1

[7] = target: T1, hFc-tagged human 4-1BB extracellular …; assay: ELISA, coated human 4-1BB-hFc; Ab 0.0001 ug/ml
Experimental: as §1

[8] = target: T1, hFc-tagged human 4-1BB extracellular …; assay: ELISA: human 4-1BB-hFc coated at 1.0 µg/mL, antibody titrated, HRP secondary antibody, OD450
Experimental: as §1

[9] = target: T2, human 4-1BB, full length, on …; assay: FACS, CHOK1-h4-1BB cells; Ab 0.00064 ug/ml
Method in brief: as §2

[10] = target: T1, hFc-tagged human 4-1BB extracellular …; assay: ELISA, coated human 4-1BB-hFc; Ab 0.08 ug/ml
Experimental: as §1

[11] = target: T1, hFc-tagged human 4-1BB extracellular …; assay: ELISA, coated human 4-1BB-hFc; Ab 0.0032 ug/ml
Experimental: as §1

[12] = target: T3, monkey 4-1BB on CHOK1 cells; assay: FACS, CHOK1-c4-1BB cells; Ab 0.00064 ug/ml
Method in brief: as §2

[13] = target: T2, human 4-1BB, full length, on …; assay: FACS, CHOK1-h4-1BB cells; Ab 0.016 ug/ml
Method in brief: as §2

T2 sequence (Q07011 24-255): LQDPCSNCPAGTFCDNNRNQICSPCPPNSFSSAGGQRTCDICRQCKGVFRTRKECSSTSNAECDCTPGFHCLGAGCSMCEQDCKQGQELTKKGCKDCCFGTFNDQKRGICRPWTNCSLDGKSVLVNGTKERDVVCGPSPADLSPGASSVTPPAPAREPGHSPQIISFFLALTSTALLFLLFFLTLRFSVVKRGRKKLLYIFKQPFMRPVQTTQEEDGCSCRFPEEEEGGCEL

B1: 15G10D4 (antibody, V domains shown)
VH: QVQLVESGGGVVQPGRSLRLSCAASGFSFSSYAMHWVRQAPGKGLEWVAIIWYDGSNQYYADSVKGRFTISRDNSKNTLYLQMNSLRAEDTAVYYCARVKQWLVSYFDYWGQGTLVTVSS
VL: EIVMTQSPATLSVSPGERATLSCRASQSVSSNLAWYQQKPGQVPRLLIYGASTRATGIPARFSGSGSGTEFSLIISSLQSEDFAVYYCQQYNNWPTFGGGTKVEIK
[1]
  OD450 nm: 3.61 OD450 nm
[2]
  average fluorescence intensity: 492 MFI
[3]
  average fluorescence intensity: 322 MFI
[4]
  average fluorescence intensity: 4.2 MFI
[5]
  average fluorescence intensity: 550 MFI
[6]
  OD450 nm: 3.55 OD450 nm
[7]
  OD450 nm: 0.17 OD450 nm
[8]
  EC50 (read off the curve): ~0.02 µg/mL
[9]
  average fluorescence intensity: 9.3 MFI
[10]
  OD450 nm: 3.35 OD450 nm
[11]
  OD450 nm: 0.52 OD450 nm
[12]
  average fluorescence intensity: 4.8 MFI
[13]
  average fluorescence intensity: 98.2 MFI
